Source: paper PMC7610778 (Science (New York, N.Y.), 2020)
Like-named read-outs stand apart in the source and are kept apart here.

T1: Atg19-3D (S390D, S391D, S396D) (S. cerevisiae, UniProt P35193 1-415, S390D | S391D | S396D)
T1 sequence: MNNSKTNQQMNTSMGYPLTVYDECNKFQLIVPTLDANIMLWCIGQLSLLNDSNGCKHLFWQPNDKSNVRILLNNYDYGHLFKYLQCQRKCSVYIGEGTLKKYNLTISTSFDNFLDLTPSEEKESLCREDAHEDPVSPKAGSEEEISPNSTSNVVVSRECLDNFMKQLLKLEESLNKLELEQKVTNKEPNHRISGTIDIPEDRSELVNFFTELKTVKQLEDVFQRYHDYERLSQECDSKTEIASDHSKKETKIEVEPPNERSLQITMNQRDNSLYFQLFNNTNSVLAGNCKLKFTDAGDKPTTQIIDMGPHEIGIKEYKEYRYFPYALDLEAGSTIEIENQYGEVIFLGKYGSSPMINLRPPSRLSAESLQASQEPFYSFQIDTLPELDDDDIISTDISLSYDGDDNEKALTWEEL

B1: mEGFP-Atg21 (natural protein)
chain: MKVLQFNQDATCCVVAASSHQISIFNCDPFGKCFEIDTKNSKKKTSNNNGSASNSESRNNEESILITNGSRDRTDAEEEEDNEDNALVTGNILKEGEFVIEMLFSTSLIAIADRGQGLNKGKKLKIVNTKRKCTICEIVFPHEIVDVVMNRKRMCVLLESDQIFIYDISCMKPLETIDLWEDHYKRSQANSFSNASNTGTLEGDSANLNRVATNLLANATQKSVNGSNPSVRTRRNSLRSKIRPRMVLSNDDRSILCFTAYSSPKKNKPNSEALYDVVIYDTLNVTPVNYLNSVHKGNVACLAVSHDGKLLATASDKGTIIRVFHTGVDSDYMSSRSLFKEFRRGTRLCNLYQLAFDKSMTMIGCVGDTDTIHLFKLDDASNSLPGDNSSNGHWNEEEYILASNSNPSMGTPKEIPLSKPRIANYFSKKIKSSIPNQNLSRNFAYITVNESNRSCLGFPDEFPNQVYIASDDGTFSIYSIPSKPGECVLTKNNKFT
B2: Atg12–Atg5-Atg16-mCherry complex (complex)
chain 1: MSRILESENETESDESSIISTNNGTAMERSRNNQELRSSPHTVQNRLELFSRRLSQLGLASDISVDQQVEDSSSGTYEQEETIKTNAQTSKQKSHKDEKNIQKIQIKFQPIGSIGQLKPSVCKISMSQSFAMVILFLKRRLKMDHVYCYINNSFAPSPQQNIGELWMQFKTNDELIVSYCASVAFG
chain 2: MNDIKQLLWNGELNVLVSIDPSFLMKGSPREIAVLRIRVPRETYLVNYMPLIWNKIKSFLSFDPLTDSEKYFWFEHNKTPIPWNYPVGVLFDCLAGKSATFTTSFENQVKDVLTFLRIHLVMGDSLPPTIIPIASSKTQAEKFWFHQWKQVCFILNGSSKAIMSLSVNEARKFWGSVITRNFQDFIEISNKISSSRPRHIPLIIQTSRTSGTFRISQPTISMTGVNPTLKDIEGDILDVKEGINGNDVMVICQGIEIPWHMLLYDLYSKLRSFDGFLYITLVPIKGGDKASSEL
chain 3: MGNFIITERKKAKEERSNPQTDSMDDLLIRRLTDRNDKEAHLNELFQDNSGAIGGNIVSHDDALLNTLAILQKELKSKEQEIRRLKEVIALKNKNTERLNDELISGTIENNVLQQKLSDLKKEHSQLVARWLKKTEKETEAMNSEIDGTK
modifications: Atg12–Atg5 conjugate | Atg12–Atg5 conjugate
B3: GST-prApe1 (1-41) (domain or fragment)
chain: MEEQREILEQLKKTLQMLTVEPSKNNQIANEEKEKKENENS
B4: Atg18-mEGFP (natural protein)
chain: MSDSSPTINFINFNQTGTCISLGTSKGFKIFNCEPFGKFYSEDSGGYAIVEMLFSTSLLALVGIGDQPALSPRRLRIINTKKHSIICEVTFPTSILSVKMNKSRLVVLLQEQIYIYDINTMRLLHTIETNPNPRGLMAMSPSVANSYLVYPSPPKVINSEIKAHATTNNITLSVGGNTETSFKRDQQDAGHSDISDLDQYSSFTKRDDADPTSSNGGNSSIIKNGDVIVFNLETLQPTMVIEAHKGEIAAMAISFDGTLMATASDKGTIIRVFDIETGDKIYQFRRGTYATRIYSISFSEDSQYLAVTGSSKTVHIFKLGHSMSNNKLDSDDSNMEEAAADDSSLDTTSIDALSDEENPTRLAREPYVDASRKTMGRMIRYSSQKLSRRAARTLGQIFPIKVTSLLESSRHFASLKLPVETNSHVMTISSIGSPIDIDTSEYPELFETGNSASTESYHEPVMKMVPIRVVSSDGYLYNFVMDPERGGDCLILSQYSILMD

Tests used:
Assay in all cases: pull-down
[1] = target: B2
[2] = target: Atg2-GFP-Atg18-CBP complex (yeast (S. cerevisiae), UniProt P53855;P43601)
Atg2-mEGFP = Atg2-mEGFP (yeast (S. cerevisiae), UniProt P53855 1-1592)
[3] = target: T1, Atg19-3D (S390D, S391D, S396D)
[4] = target: B2; remark: listed apart in the source

Atg2-mEGFP, sequence (P53855 whole entry): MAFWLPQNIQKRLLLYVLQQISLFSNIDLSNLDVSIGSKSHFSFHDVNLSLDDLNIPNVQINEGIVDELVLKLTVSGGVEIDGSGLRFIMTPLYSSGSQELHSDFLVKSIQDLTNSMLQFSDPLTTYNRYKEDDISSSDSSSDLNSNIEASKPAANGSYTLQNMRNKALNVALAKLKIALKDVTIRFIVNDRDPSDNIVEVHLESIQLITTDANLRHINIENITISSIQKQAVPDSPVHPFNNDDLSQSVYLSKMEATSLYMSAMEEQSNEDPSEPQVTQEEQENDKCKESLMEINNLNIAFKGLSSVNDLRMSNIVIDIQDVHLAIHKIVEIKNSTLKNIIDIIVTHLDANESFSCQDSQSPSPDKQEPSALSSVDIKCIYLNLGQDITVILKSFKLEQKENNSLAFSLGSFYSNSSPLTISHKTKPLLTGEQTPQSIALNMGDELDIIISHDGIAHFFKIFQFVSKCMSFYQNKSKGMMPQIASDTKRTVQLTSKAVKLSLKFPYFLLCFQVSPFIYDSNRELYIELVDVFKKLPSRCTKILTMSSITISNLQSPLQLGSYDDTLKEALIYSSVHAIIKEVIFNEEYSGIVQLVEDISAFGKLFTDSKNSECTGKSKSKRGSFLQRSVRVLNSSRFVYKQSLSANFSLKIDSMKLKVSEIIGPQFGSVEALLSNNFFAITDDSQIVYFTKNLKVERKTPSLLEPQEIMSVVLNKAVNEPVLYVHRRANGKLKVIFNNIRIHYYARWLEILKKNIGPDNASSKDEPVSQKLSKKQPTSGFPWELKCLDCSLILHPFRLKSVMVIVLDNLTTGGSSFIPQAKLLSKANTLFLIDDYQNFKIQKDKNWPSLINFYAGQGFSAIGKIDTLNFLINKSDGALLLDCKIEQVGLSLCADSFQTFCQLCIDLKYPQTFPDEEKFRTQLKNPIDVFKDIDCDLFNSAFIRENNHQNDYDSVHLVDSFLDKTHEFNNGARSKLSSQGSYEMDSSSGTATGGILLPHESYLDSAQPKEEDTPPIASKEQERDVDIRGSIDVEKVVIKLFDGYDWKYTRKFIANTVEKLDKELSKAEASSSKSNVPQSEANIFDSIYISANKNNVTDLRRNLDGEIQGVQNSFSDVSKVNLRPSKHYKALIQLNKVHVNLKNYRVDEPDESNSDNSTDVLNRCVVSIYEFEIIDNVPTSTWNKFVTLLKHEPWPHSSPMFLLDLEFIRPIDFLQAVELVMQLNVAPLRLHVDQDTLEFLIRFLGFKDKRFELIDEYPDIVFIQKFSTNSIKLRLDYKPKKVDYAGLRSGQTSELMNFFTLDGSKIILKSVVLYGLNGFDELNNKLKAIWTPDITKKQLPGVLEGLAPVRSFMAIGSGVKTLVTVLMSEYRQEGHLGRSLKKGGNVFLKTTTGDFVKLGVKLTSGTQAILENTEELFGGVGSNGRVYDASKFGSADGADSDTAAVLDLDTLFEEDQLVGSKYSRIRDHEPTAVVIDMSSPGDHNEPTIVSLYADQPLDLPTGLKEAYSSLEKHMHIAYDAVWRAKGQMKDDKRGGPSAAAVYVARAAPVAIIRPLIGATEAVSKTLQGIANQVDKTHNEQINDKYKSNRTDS
Atg2-GFP-Atg18-CBP complex, sequence (P53855 whole entry, one chain of several): as the sequence (P53855 whole entry) above

B1: binds [1].

B2: binds [2]; binds (Atg2-mEGFP).

B3: binds [3].

B4: binds [4].
